# Data published in patent US20250320312A1 (OXITOPE PHARMA B V, published 2025).
# B1: PcOxP_DB04_A11 (human IgG1) (antibody, V domains shown)
# VH: EVQLLESGGGLVQPGGSLRLSCAASGFTFSDYYMEWVRQAPGKGLEWVAASRNKANTYTTEYADSVKGRFTISRDNSKNTLYLQMNSLRAEDTAVYYCARDYYGSSYWYFDVWGQGTLVTVSS
# VL: DIVMTQSPDSLAVSLGERATINCTASESVLSSKHKKNYLAWYQQKPGQPPKLLIYGASTRYIGVPDRFSGSGSGTDFTLTISSLQAEDVAVYYCAQFYSYPLTFGGGTKVEIK
# B2: PcOxP_DB04_E05 (human IgG1) (antibody, V domains shown)
# VH: EVQLLESGGGLVQPGGSLRLSCAASGNTFSDFYMEWVRQAPGKGLEWVAASRNKANYYTTEYADSVKGRFTISRDNSKNTLYLQMNSLRAEDTAVYYCARDYYGSSYWYFDVWGQGTLVTVSS
# VL: DIVMTQSPDSLAVSLGERATINCTASESLYSSKHKVHYLAWYQQKPGQPPKLLIYGASNRYIGVPDRFSGSGSGTDFTLTISSLQAEDVAVYYCAQFYSYPLTFGGGTKVEIK
# B3: PcOxP_DB01_A06 (human IgG1) (antibody, V domains shown)
# VH: EVQLLESGGGLVQPGGSLRLSCAASGFTFSDYYMEWVRQAPGKGLEWVAASRNKANDYTTEYADSVKGRFTISRDNSKNTLYLQMNSLRAEDTAVYYCARDYYGSSYWYFDVWGQGTLVTVSS
# VL: DIQMTQSPSSLSASVGDRVTITCTASESLYSSKHKVHYLAWYQQKPGKAPKLLIYGASNRYIGVPSRFSGSGSGTDFTLTISSLQPEDFATYYCAEFYSYPLTFGGGTKVEIK
# B4: PcOxP_DB01_B09 (human IgG1) (antibody, V domains shown)
# VH: EVQLLESGGGLVQPGGSLRLSCAASGFTFSDYYMEWVRQAPGKGLEWVAASRNKANDYTTEYADSVKGRFTISRDNSKNTLYLQMNSLRAEDTAVYYCARDYYGSSYWYFDVWGQGTLVTVSS
# VL: DIQMTQSPSSLSASVGDRVTITCTASESLYSSKHKVHYLAWYQQKPGKAPKLLIYGASNRYTGVPSRFSGSGSGTDFTLTISSLQPEDFATYYCAQFYHYPLTFGGGTKVEIK
# B5: PcOxP_DB01_C04 (human IgG1) (antibody, V domains shown)
# VH: EVQLLESGGGLVQPGGSLRLSCAASGFQFSDFYMEWVRQAPGKGLEWVAASRNKANDYTTEYADSVKGRFTISRDNSKNTLYLQMNSLRAEDTAVYYCARDYYGSSYWYFDVWGQGTLVTVSS
# VL: DIQMTQSPSSLSASVGDRVTITCTASESLYSSKHKVHYLAWYQQKPGKAPKLLIYGASNRYIGVPSRFSGSGSGTDFTLTISSLQPEDFATYYCAQFYYYPLTFGGGTKVEIK
# B6: PcOxP_DB01_D01 (human IgG1) (antibody, V domains shown)
# VH: EVQLLESGGGLVQPGGSLRLSCAASGFTFSSYYMEWVRQAPGKGLEWVAASRNKANDYTTEYADSVKGRFTISRDNSKNTLYLQMNSLRAEDTAVYYCARDYYGSSYWYFDVWGQGTLVTVSS
# VL: DIVMTQSPDSLAVSLGERATINCTASESLYSPKHKVHYLAWYQQKPGQPPKLLIYGASNRYIGVPDRFSGSGSGTDFTLTISSLQAEDVAVYYCAQFYIYPLTFGGGTKVEIK
# B7: PcOxP_DB01_D11 (human IgG1) (antibody, V domains shown)
# VH: EVQLLESGGGLVQPGGSLRLSCAASGFTFSSYYMEWVRQAPGKGLEWVAASRNKANDYTTEYADSVKGRFTISRDNSKNTLYLQMNSLRAEDTAVYYCARDYYGSSYWYNDVWGQGTLVTVSS
# VL: DIVMTQSPDSLAVSLGERATINCTASESLYSSKWKVHYLAWYQQKPGQPPKLLIYGASNRYIGVPDRFSGSGSGTDFTLTISSLQAEDVAVYYCAQFYSYPLTFGGGTKVEIK
# B8: PcOxP_DB01_E05 (human IgG1) (antibody, V domains shown)
# VH: EVQLLESGGGLVQPGGSLRLSCAASGFTFSDYYMEWVRQAPGKGLEWVAASRNKANDYTTEYADSVKGRFTISRDNSKNTLYLQMNSLRAEDTAVYYCARDYYGSSYWYFDVWGQGTLVTVSS
# VL: DIQMTQSPSSLSASVGDRVTITCTASESLYSSKHKVNYLAWYQQKPGKAPKLLIYGASNRYIGVPSRFSGSGSGTDFTLTISSLQPEDFATYYCAQFYQYPLTFGGGTKVEIK
# B9: PcOxP_DB01_F01 (human IgG1) (antibody, V domains shown)
# VH: EVQLLESGGGLVQPGGSLRLSCAASGFPFSDFYMEWVRQAPGKGLEWVAASRNKANDYTTEYADSVKGRFTISRDNSKNTLYLQMNSLRAEDTAVYYCARDYYGSPYWYFDVWGQGTLVTVSS
# VL: DIVMTQSPDSLAVSLGERATINCTASESVYSSKNKKHYLAWYQQKPGQPPKLLIYGASNRYIGVPDRFSGSGSGTDFTLTISSLQAEDVAVYYCAQFYTYPLTFGGGTKVEIK
# B10: PcOxP_DB01_G10 (human IgG1) (antibody, V domains shown)
# VH: EVQLLESGGGLVQPGGSLRLSCAASGFTFSDFYMEWVRQAPGKGLEWVAASRNKNNDYTTEYADSVKGRFTISRDNSKNTLYLQMNSLRAEDTAVYYCARDYYGSSYWYFDVWGQGTLVTVSS
# VL: DIVMTQSPDSLAVSLGERATINCKASQSLYSSKHKKHYLAWYQQKPGQPPKLLIYGASNRYPGVPDRFSGSGSGTDFTLTISSLQAEDVAVYYCAQFYRYPLTFGGGTKVEIK
# B11: PcOxP_DB01_H02 (human IgG1) (antibody, V domains shown)
# VH: EVQLLESGGGLVQPGGSLRLSCAASGFTFSSYYMEWVRQAPGKGLEWVAASRNKANDYTTEYADSVKGRFTISRDNSKNTLYLQMNSLRAEDTAVYYCARDYYGSSYWYFDVWGQGTLVTVSS
# VL: DIVMTQSPDSLAVSLGERATINCTASSSLYSSKHKVHYLAWYQQKPGQPPKLLIYGASNRYIGVPDRFSGSGSGTDFTLTISSLQAEDVAVYYCAQFYSYPLTFGGGTKVEIK
# B12: PcOxP_DB01_H04 (human IgG1) (antibody, V domains shown)
# VH: EVQLLESGGGLVQPGGSLRLSCAASGFAFSDFYMEWVRQAPGKGLEWVAASRNKANDYTTEYADSVKGRFTISRDNSKNTLYLQMNSLRAEDTAVYYCARDYYGSHYWYFDVWGQGTLVTVSS
# VL: DIQMTQSPSSLSASVGDRVTITCTASESLYSSKHKVHYLAWYQQKPGKAPKLLIYGASNLQSGVPSRFSGSGSGTDFTLTISSLQPEDFATYYCAQFYYYPLTFGGGTKVEIK
# B13: PcOxP_DB02_A06 (human IgG1) (antibody, V domains shown)
# VH: EVQLLESGGGLVQPGGSLRLSCAASGFTFSDQYMEWVRQAPGKGLEWVAASRNKANDYTTEYADSVKGRFTISRDNSKNTLYLQMNSLRAEDTAVYYCARDYYGSSYWYFDVWGQGTLVTVSS
# VL: DIQMTQSPSSLSASVGDRVTITCTASESLYSSKHKVHYLAWYQQKPGKAPKLLIYGLSNRYIGVPSRFSGSGSGTDFTLTISSLQPEDFATYYCAQFYSYPLTFGGGTKVEIK
# B14: PcOxP_DB02_C01 (human IgG1) (antibody, V domains shown)
# VH: EVQLLESGGGLVQPGGSLRLSCAASGFTFSDAYMEWVRQAPGKGLEWVAASRNKANDYTTEYADSVKGRFTISRDNSKNTLYLQMNSLRAEDTAVYYCARDYYGSSYWYFDVWGQGTLVTVSS
# VL: DIQMTQSPSSLSASVGDRVTITCTASESLYSSKHKVHYLAWYQQKPGKAPKLLIYGASNRYIGVPSRFSGSGSGTDFTLTISSLQPEDFATYYCAQFYSYPLTFGGGTKVEIK
# B15: PcOxP_DB02_H07 (human IgG1) (antibody, V domains shown)
# VH: EVQLLESGGGLVQPGGSLRLSCAASGFTFSSYYMEWVRQAPGKGLEWVAASRNKANDYTTEYADSVKGRFTISRDNSKNTLYLQMNSLRAEDTAVYYCARDYYGSSYWYFDVWGQGTLVTVSS
# VL: DIVMTQSPDSLAVSLGERATINCTASESLYSSKHKVHYLAWYQQKPGQPPKLLIYGASNRYNGVPDRFSGSGSGTDFTLTISSLQAEDVAVYYCAQFYTYPLTFGGGTKVEIK
# B16: PcOxP_DB03_A09 (human IgG1) (antibody, V domains shown)
# VH: EVQLLESGGGLVQPGGSLRLSCAASGFTFSDYYMEWVRQAPGKGLEWVAASRNKANDYTTEYADSVKGRFTISRDNSKNTLYLQMNSLRAEDTAVYYCARDYYGSSYWYFDVWGQGTLVTVSS
# VL: DIQMTQSPSSLSASVGDRVTITCTASESLYSSKHKVHYLAWYQQKPGKAPKLLIYGASNRGIGVPSRFSGSGSGTDFTLTISSLQPEDFATYYCAQFYSYPLTFGGGTKVEIK
# B17: PcOxP_DB03_B09 (human IgG1) (antibody, V domains shown)
# VH: EVQLLESGGGLVQPGGSLRLSCAASGFTFSSYYMEWVRQAPGKGLEWVAASRNKANDYTTEYADSVKGRFTISRDNSKNTLYLQMNSLRAEDTAVYYCARDYYGSSYWYFDVWGQGTLVTVSS
# VL: DIVMTQSPDSLAVSLGERATINCTASESLYSSKHKVHYLAWYQQKPGQPPKLLIYGAANRYIGVPDRFSGSGSGTDFTLTISSLQAEDVAVYYCAQFYSYPLTFGGGTKVEIK
# B18: PcOxP_DB03_C03 (human IgG1) (antibody, V domains shown)
# VH: EVQLLESGGGLVQPGGSLRLSCAASGFTFSDFYMEWVRQAPGKGLEWVAASRNKYNDYTTEYADSVKGRFTISRDNSKNTLYLQMNSLRAEDTAVYYCARDYYGSSYWYFDVWGQGTLVTVSS
# VL: DIQMTQSPSSLSASVGDRVTITCTASESLYSSKHKVHYLAWYQQKPGKAPKLLIYGASNRYIGVPSRFSGSGSGTDFTLTISSLQPEDFATYYCAQFYSYPLTFGGGTKVEIK
# B19: PcOxP_DB03_C12 (human IgG1) (antibody, V domains shown)
# VH: EVQLLESGGGLVQPGGSLRLSCAASGFTFSDYYMEWVRQAPGKGLEWVAASRNKANDYTTEYADSVKGRFTISRDNSKNTLYLQMNSLRAEDTAVYYCARDYYGSSYWYFDVWGQGTLVTVSS
# VL: DIQMTQSPSSLSASVGDRVTITCTASESLYSSKHKVHYLAWYQQKPGKAPKLLIYGASNRYGGVPSRFSGSGSGTDFTLTISSLQPEDFATYYCAQFYSYPLTFGGGTKVEIK
# B20: PcOxP_DB03_D08 (human IgG1) (antibody, V domains shown)
# VH: EVQLLESGGGLVQPGGSLRLSCAASGFWFSDFYMEWVRQAPGKGLEWVAASRNKANDYTTEYADSVKGRFTISRDNSKNTLYLQMNSLRAEDTAVYYCARDYYGSAYWYFDVWGQGTLVTVSS
# VL: DIQMTQSPSSLSASVGDRVTITCTASESLYSSKHKVHYLAWYQQKPGKAPKLLIYGASNRYIGVPSRFSGSGSGTDFTLTISSLQPEDFATYYCAQFYSYPLTFGGGTKVEIK
# B21: PcOxP_DB03_E01 (human IgG1) (antibody, V domains shown)
# VH: EVQLLESGGGLVQPGGSLRLSCAASGFTFSDYYMEWVRQAPGKGLEWVAASRNKANDYTVEYADSVKGRFTISRDNSKNTLYLQMNSLRAEDTAVYYCARDYYGSSYWYFDVWGQGTLVTVSS
# VL: DIQMTQSPSSLSASVGDRVTITCTASESLYSSKHKVHYLAWYQQKPGKAPKLLIYGTSNRYIGVPSRFSGSGSGTDFTLTISSLQPEDFATYYCAQFYEYPLTFGGGTKVEIK
# B22: PcOxP_DB03_G07 (human IgG1) (antibody, V domains shown)
# VH: EVQLLESGGGLVQPGGSLRLSCAASGFTFSDHYMEWVRQAPGKGLEWVAASRNKANDYTTEYADSVKGRFTISRDNSKNTLYLQMNSLRAEDTAVYYCARDYYGQSYWYFDVWGQGTLVTVSS
# VL: DIQMTQSPSSLSASVGDRVTITCTASESLYSSKHKVHYLAWYQQKPGKAPKLLIYGASNRYIGVPSRFSGSGSGTDFTLTISSLQPEDFATYYCAQFYSYPLTFGGGTKVEIK
# Molecular target: PC-BSA
# Test: ELISA (DELFIA TRF), PC-BSA coated, titrated IgG1
# Chain of PC-BSA (P02769 25-607 limits assumed, form in doubt): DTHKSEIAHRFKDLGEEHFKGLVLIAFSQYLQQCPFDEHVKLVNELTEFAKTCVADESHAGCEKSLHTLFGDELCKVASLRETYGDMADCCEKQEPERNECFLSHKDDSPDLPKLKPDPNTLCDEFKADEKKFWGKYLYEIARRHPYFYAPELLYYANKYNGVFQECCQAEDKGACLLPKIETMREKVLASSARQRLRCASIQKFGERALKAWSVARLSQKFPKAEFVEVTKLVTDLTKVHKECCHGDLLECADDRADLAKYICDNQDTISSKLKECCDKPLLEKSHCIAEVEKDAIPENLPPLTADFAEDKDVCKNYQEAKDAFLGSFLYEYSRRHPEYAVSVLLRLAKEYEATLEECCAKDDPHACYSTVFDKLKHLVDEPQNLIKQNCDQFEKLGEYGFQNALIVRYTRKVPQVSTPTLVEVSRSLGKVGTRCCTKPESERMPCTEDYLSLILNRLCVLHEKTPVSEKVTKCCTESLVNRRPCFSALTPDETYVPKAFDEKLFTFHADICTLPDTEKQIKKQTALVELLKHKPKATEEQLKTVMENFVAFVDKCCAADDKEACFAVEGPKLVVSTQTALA
row,Binder,EC50 [nM]
1,B1,0.413
2,B2,0.282
3,B3,0.43
4,B4,0.317
5,B5,0.31
6,B6,0.274
7,B7,0.242
8,B8,0.417
9,B9,0.672
10,B10,0.407
11,B11,0.43
12,B12,0.456
13,B13,0.643
14,B14,0.64
15,B15,0.423
16,B16,0.664
17,B17,0.426
18,B18,0.339
19,B19,0.436
20,B20,0.401
21,B21,0.857
22,B22,0.636
